Experimental data taken from the supplement of paper PMC9112550, “Optimization of the antimicrobial peptide Bac7 by deep mutational scanning” (BMC Biology, 2022).

Test system: Escherichia coli TOP10
Assay: shrunken log2 fold change of peptide-encoding DNA abundance (4.5 h post-induction vs induction); higher = less antimicrobial activity (less host growth inhibition)
Settings: time post-induction: 4.5 h; library: site-saturation at positions 5, 18, 19, 20
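Also: peptides expressed intracellularly from a pBAD plasmid library in pooled LB shake-flask culture, induced with 0.3% L-arabinose, DNA abundance read by NGS, three biological replicates, DESeq2 with apeglm shrinkage.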

Row | Sequence | shrunken log2 fold change
1 | RRIRFRPPRLPRPRPRPNKLPRP | -0.615
2 | RRIRKRPPRLPRPRPRPSNMPRP | -0.327
3 | RRIRCRPPRLPRPRPRPAADPRP | 0.341
4 | RRIRPRPPRLPRPRPRPCMDPRP | -0.561
5 | RRIRFRPPRLPRPRPRPRIDPRP | -0.0186
6 | RRIRCRPPRLPRPRPRPKHVPRP | -0.155
7 | RRIRGRPPRLPRPRPRPMTWPRP | 0.17
8 | RRIRPRPPRLPRPRPRPYRTPRP | -0.111
9 | RRIRNRPPRLPRPRPRPMACPRP | -0.109
10 | RRIRPRPPRLPRPRPRPWAHPRP | -0.00675
11 | RRIRMRPPRLPRPRPRPQWMPRP | 0.109
12 | RRIRDRPPRLPRPRPRPESRPRP | 0.0324
13 | RRIRCRPPRLPRPRPRPRSYPRP | -0.233
14 | RRIRPRPPRLPRPRPRPWQCPRP | -0.0562
15 | RRIRFRPPRLPRPRPRPNDCPRP | -0.415
16 | RRIRVRPPRLPRPRPRPTIIPRP | -0.479
17 | RRIRKRPPRLPRPRPRPTTWPRP | 0.414
18 | RRIRHRPPRLPRPRPRPQYEPRP | -0.0461
19 | RRIRVRPPRLPRPRPRPAFSPRP | 0.104
20 | RRIRRRPPRLPRPRPRPFDVPRP | -0.0126
21 | RRIRYRPPRLPRPRPRPNFTPRP | -0.348
22 | RRIRARPPRLPRPRPRPYMDPRP | -0.0602
23 | RRIRMRPPRLPRPRPRPKCAPRP | 2.89
24 | RRIRIRPPRLPRPRPRPFKAPRP | -0.431
25 | RRIRHRPPRLPRPRPRPIQKPRP | -0.00174

Row | Sequence | shrunken log2 fold change
26 | RRIRVRPPRLPRPRPRPCNNPRP | 0.0786
27 | RRIRYRPPRLPRPRPRPSSNPRP | -0.634
28 | RRIRGRPPRLPRPRPRPICPPRP | 0.114
29 | RRIRYRPPRLPRPRPRPPLMPRP | -0.293
30 | RRIRERPPRLPRPRPRPPMCPRP | -0.305
31 | RRIRLRPPRLPRPRPRPTNLPRP | -0.27
32 | RRIRRRPPRLPRPRPRPPNFPRP | 0.0782
33 | RRIRGRPPRLPRPRPRPSIEPRP | 0.36
34 | RRIRVRPPRLPRPRPRPHNAPRP | -0.164
35 | RRIRDRPPRLPRPRPRPPYPPRP | 0.109
36 | RRIRNRPPRLPRPRPRPHWFPRP | -0.318
37 | RRIRKRPPRLPRPRPRPMEQPRP | 0.033
38 | RRIRDRPPRLPRPRPRPYWCPRP | 0.0158
39 | RRIRRRPPRLPRPRPRPIWWPRP | 0.58
40 | RRIRTRPPRLPRPRPRPMMPPRP | -0.0027
41 | RRIRARPPRLPRPRPRPWELPRP | 0.0412
42 | RRIRMRPPRLPRPRPRPLYAPRP | 0.063
43 | RRIRWRPPRLPRPRPRPSKRPRP | 0.149
44 | RRIRYRPPRLPRPRPRPWNEPRP | -0.0429
45 | RRIRCRPPRLPRPRPRPHNWPRP | -0.00871
46 | RRIRERPPRLPRPRPRPQRSPRP | -0.106
47 | RRIRGRPPRLPRPRPRPSPIPRP | 0.411
48 | RRIRKRPPRLPRPRPRPCWKPRP | 0.0714
49 | RRIRWRPPRLPRPRPRPPKWPRP | 0.627
50 | RRIRIRPPRLPRPRPRPWYMPRP | -0.775

Row | Sequence | shrunken log2 fold change
51 | RRIRNRPPRLPRPRPRPQVEPRP | 0.0172
52 | RRIRIRPPRLPRPRPRPGENPRP | -0.0334
53 | RRIRERPPRLPRPRPRPQRIPRP | -0.0866
54 | RRIRQRPPRLPRPRPRPMCQPRP | -0.053
55 | RRIRSRPPRLPRPRPRPTDFPRP | -0.541
56 | RRIRARPPRLPRPRPRPINEPRP | -0.0644
57 | RRIRSRPPRLPRPRPRPWPRPRP | 0.646
58 | RRIRCRPPRLPRPRPRPANHPRP | -0.282
59 | RRIRVRPPRLPRPRPRPMMAPRP | -0.12
60 | RRIRARPPRLPRPRPRPVYKPRP | -0.35
61 | RRIRSRPPRLPRPRPRPEGKPRP | 0.0822
62 | RRIRWRPPRLPRPRPRPCRLPRP | 0.0377
63 | RRIRLRPPRLPRPRPRPTHWPRP | 0.416
64 | RRIRERPPRLPRPRPRPFGHPRP | -0.224
65 | RRIRTRPPRLPRPRPRPNQRPRP | 0.181
66 | RRIRMRPPRLPRPRPRPDPIPRP | -0.249
67 | RRIRYRPPRLPRPRPRPLGNPRP | 0.0523
68 | RRIRNRPPRLPRPRPRPIGTPRP | 0.000741
69 | RRIRKRPPRLPRPRPRPWDAPRP | 0.496
70 | RRIRIRPPRLPRPRPRPVDAPRP | -0.0281
71 | RRIRERPPRLPRPRPRPFHSPRP | -0.256
72 | RRIRGRPPRLPRPRPRPPRPPRP | 1.08
73 | RRIRLRPPRLPRPRPRPKWWPRP | 0.396
74 | RRIRDRPPRLPRPRPRPRGQPRP | 0.141
75 | RRIRHRPPRLPRPRPRPHQQPRP | 0.0121

Row | Sequence | shrunken log2 fold change
76 | RRIRRRPPRLPRPRPRPNDHPRP | 0.0277
77 | RRIRARPPRLPRPRPRPHGQPRP | 0.0639
78 | RRIRRRPPRLPRPRPRPHPCPRP | 0.0156
79 | RRIRPRPPRLPRPRPRPSNFPRP | -0.168
80 | RRIRWRPPRLPRPRPRPKIMPRP | -0.198
81 | RRIRARPPRLPRPRPRPEKVPRP | 0.131
82 | RRIRGRPPRLPRPRPRPMCHPRP | 0.874
83 | RRIRKRPPRLPRPRPRPCCFPRP | 0.112
84 | RRIRNRPPRLPRPRPRPDTVPRP | -0.0521
85 | RRIRLRPPRLPRPRPRPSQPPRP | -0.0367
86 | RRIRVRPPRLPRPRPRPYLTPRP | -0.575
87 | RRIRERPPRLPRPRPRPKRPPRP | 0.194
88 | RRIRERPPRLPRPRPRPKMSPRP | 0.148
89 | RRIRVRPPRLPRPRPRPIKWPRP | -0.161
90 | RRIRFRPPRLPRPRPRPPGEPRP | 0.421
91 | RRIRRRPPRLPRPRPRPNEPPRP | 0.317
92 | RRIRHRPPRLPRPRPRPTEIPRP | 0.0223
93 | RRIRSRPPRLPRPRPRPGNMPRP | -0.12
94 | RRIRTRPPRLPRPRPRPLQSPRP | -0.00232
95 | RRIRSRPPRLPRPRPRPEIVPRP | 0.412
96 | RRIRVRPPRLPRPRPRPDQRPRP | 0.128
97 | RRIRQRPPRLPRPRPRPACNPRP | 0.0438
98 | RRIRGRPPRLPRPRPRPIYKPRP | -0.071
99 | RRIRERPPRLPRPRPRPMHRPRP | -0.157
100 | RRIRERPPRLPRPRPRPDYTPRP | -1.01

Row | Sequence | shrunken log2 fold change
101 | RRIRARPPRLPRPRPRPGVPPRP | 0.727
102 | RRIRLRPPRLPRPRPRPPSMPRP | -0.127
103 | RRIRYRPPRLPRPRPRPECGPRP | -0.114
104 | RRIRPRPPRLPRPRPRPPPQPRP | 0.963
105 | RRIRARPPRLPRPRPRPIAFPRP | 0.222
106 | RRIRKRPPRLPRPRPRPLPRPRP | 1.08
107 | RRIRQRPPRLPRPRPRPMHDPRP | -0.0216
108 | RRIRMRPPRLPRPRPRPTNKPRP | 0.111
109 | RRIRARPPRLPRPRPRPNIEPRP | 0.0171
110 | RRIRRRPPRLPRPRPRPSWIPRP | -0.284
111 | RRIRPRPPRLPRPRPRPGRSPRP | 0.0919
112 | RRIRMRPPRLPRPRPRPVYQPRP | -0.372
113 | RRIRCRPPRLPRPRPRPWRPPRP | 0.0893
114 | RRIRRRPPRLPRPRPRPGYNPRP | -0.27
115 | RRIRMRPPRLPRPRPRPMFAPRP | 0.304
116 | RRIRYRPPRLPRPRPRPISHPRP | -0.675
117 | RRIRKRPPRLPRPRPRPEPFPRP | 0.0238
118 | RRIRRRPPRLPRPRPRPMLVPRP | 0.196
119 | RRIRGRPPRLPRPRPRPVNFPRP | 0.44
120 | RRIRYRPPRLPRPRPRPRPTPRP | 0.363
121 | RRIRYRPPRLPRPRPRPIAWPRP | -0.0381
122 | RRIRKRPPRLPRPRPRPAFLPRP | 0.245
123 | RRIRSRPPRLPRPRPRPAVMPRP | 0.139
124 | RRIRDRPPRLPRPRPRPNFTPRP | -0.0368
125 | RRIRHRPPRLPRPRPRPSCKPRP | -0.609
